Test results published in paper PMC1561584.

Molecular target: LexA-UNC-119 (C. elegans) (UniProt Q10658)
Assay: two-hybrid; LexA baits and GAD preys in strain L40; data not shown

Sequence of UniProt Q10658 (Q10658 whole entry): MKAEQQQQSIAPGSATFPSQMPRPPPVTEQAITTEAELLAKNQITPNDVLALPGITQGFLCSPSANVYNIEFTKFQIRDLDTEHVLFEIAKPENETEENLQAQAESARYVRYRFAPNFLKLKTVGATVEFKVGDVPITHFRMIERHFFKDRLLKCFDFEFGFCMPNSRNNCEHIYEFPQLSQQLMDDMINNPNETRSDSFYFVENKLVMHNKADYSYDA

- strength of interaction relative to ARL-3 FL (β-galactosidase activity) (fold of ARL-3 FL): 0.2
Substance: ARL-3Δ17 (domain or fragment)
